Test results published in patent EP1379283B1, “IDENTIFICATION OF TARGET-SPECIFIC FOLDING SITES IN PEPTIDES AND PROTEINS” (Palatin Technologies, Inc., priority 2000, dated 2002).
Square brackets hold non-standard residues; d marks the D form. Ends that are not written are not given here. dChg = N[C@@H](C(=O)O)C1CCCCC1; Chg = N[C@H](C(=O)O)C1CCCCC1; Orn = NCCC[C@H](N)C(=O)O; Dap = NC[C@H](N)C(=O)O

Tests used:
[1] = target: T1, uPA receptor (Homo sapiens, UniProt Q03405); assay: uPA receptor-binding assay using U937 cells and ATF as competitive ligand; settings: 1 µM metallopeptide; U937 cells; ATF as competitive receptor binding ligand
T1 construct: endogenous in cells; host or cells: U937 cells
T1 sequence (Q03405 23-335): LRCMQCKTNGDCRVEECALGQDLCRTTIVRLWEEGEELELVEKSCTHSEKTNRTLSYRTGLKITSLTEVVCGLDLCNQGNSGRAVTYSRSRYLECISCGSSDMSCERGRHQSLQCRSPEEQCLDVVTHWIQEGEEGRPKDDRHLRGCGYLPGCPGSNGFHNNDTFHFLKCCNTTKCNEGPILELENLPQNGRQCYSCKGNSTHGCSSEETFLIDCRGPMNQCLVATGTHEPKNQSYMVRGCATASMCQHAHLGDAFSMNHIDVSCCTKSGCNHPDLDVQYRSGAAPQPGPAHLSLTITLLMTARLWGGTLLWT

[2] = target: T2, vasopressin-1 receptor (Rattus norvegicus, UniProt P30560); assay: vasopressin-1 receptor binding, 3H-vasopressin-1 antagonist, cell membranes from rat liver
T2 construct: cell membranes prepared from rat liver; from tissue; host or cells: rat liver membranes
T2 sequence (P30560 whole entry): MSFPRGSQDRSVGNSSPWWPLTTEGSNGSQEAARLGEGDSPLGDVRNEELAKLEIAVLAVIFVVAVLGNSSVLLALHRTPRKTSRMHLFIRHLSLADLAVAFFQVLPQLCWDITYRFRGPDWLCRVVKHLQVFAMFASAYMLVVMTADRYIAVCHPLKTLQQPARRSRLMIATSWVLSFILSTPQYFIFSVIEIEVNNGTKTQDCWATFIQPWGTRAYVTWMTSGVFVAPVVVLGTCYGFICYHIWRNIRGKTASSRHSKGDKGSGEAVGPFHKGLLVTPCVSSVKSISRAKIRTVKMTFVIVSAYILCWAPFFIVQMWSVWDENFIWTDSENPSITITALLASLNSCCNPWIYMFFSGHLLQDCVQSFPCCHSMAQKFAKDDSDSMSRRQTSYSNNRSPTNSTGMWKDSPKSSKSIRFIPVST
Description: The screening of compounds for vasopressin-1 receptor was performed using cell membranes prepared from rat liver. The assay was essentially performed as described above for the oxytocin receptor assay. In this assay 2-4 nM ^3H-vasopressin-1 antagonist (obtained from Perkin Elemer- NEN Life Sciences) was used as the radiotracer and Arg^8-vasopressin (1 µM final concentration in the assay) was used to determine non-specific binding. The assay was performed in triplicates. Activity profile for the test compounds were generated by their ability to inhibit specific binding of the radiotracer to its receptor.

[3] = target: T3, oxytocin receptor (Rattus norvegicus, UniProt P70536); assay: oxytocin receptor binding, 3H-oxytocin, cell membranes from rat uterus; settings: for activity at oxytocin receptor: conclusion from Table 30; for % Inhibition at 1 µM Oxytocin Receptor: rat uterus membranes, 3H-oxytocin
T3 construct: cell membranes prepared from rat uterus; from tissue; host or cells: rat uterus membranes
T3 sequence (P70536 1-388): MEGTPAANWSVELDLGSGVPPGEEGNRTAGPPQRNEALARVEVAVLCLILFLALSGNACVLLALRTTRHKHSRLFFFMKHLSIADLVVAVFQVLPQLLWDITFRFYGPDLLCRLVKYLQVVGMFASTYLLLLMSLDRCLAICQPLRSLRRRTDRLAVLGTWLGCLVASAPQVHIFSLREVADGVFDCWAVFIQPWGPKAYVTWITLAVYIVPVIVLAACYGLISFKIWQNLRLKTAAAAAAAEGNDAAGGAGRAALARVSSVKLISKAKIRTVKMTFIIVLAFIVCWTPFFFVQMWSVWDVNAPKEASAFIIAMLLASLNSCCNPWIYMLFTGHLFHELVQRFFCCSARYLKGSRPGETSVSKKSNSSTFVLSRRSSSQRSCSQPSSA
Description: The screening of metallopeptides for binding to oxytocin receptor was done using cell membranes prepared from rat uterus. […] The membrane preparations (10 - 50 µg/well) were incubated with 412-800 pM ^3H-oxytocin in HEPES Buffer containing 0.2% bovine serum albumin along with a test compound (1 µM final assay concentration) for 2 hours at 4° C. Non-specific binding was determined by addition of 10^-6 M oxytocin instead of the test compound. After incubation, the membranes were filtered and washed three times with ice-cold PBS. The membranes were air-dried and punched directly into scintillation vials. After addition of the scintillation cocktail, the vials were capped and gently shaken for 12 hours to dissolve the radioactivity contained in the filters. The vials were then read for tritium counts in a scintillation counter. Specific binding was determined as the radioactivity in wells containing ^3H-oxytocin alone minus the radioactivity in wells containing 10^-6 M oxytocin. The assay was performed in triplicates. The activity profile for the test compounds were generated by their ability to inhibit specific binding of the radiotracer to its receptor.

[4] = Table 30, oxytocin ligand library
[5] = Table 29, vasopressin ligand library

Row | Substance | % Inhibition at 1 µM Vasopressin-1 Receptor [2, 4] [%] | % Inhibition at 1 µM Oxytocin Receptor [3, 4] [%] | % Inhibition at 1 µM Vasopressin-1 Receptor [2, 5] [%] | % Inhibition at 1 µM Oxytocin Receptor [3, 5] [%] | further results
1 | Ac-Val-Ser-Asn-Cys-Lys-Tyr-Phe-Ser-Asn-Ile-His-Trp-NH2 (Ac-VSNCKYFSNIHW-NH2; not fully specified (bridges); printed as Ac-Val-Ser-Asn-Cys-Lys-Tyr-Phe-Ser-Asn-Ile-His-Trp-NH2; also: oxorhenium(V) N3S1 metal chelate (X-X-Cys)) [SEQ ID NO:5] | – | – | – | – | % Inhibition at 1 µM [1]: 0.0%
2 | Ac-Val-Ser-Asn-Lys-Tyr-Phe-Ser-Asn-Ile-Cys-His-Trp-NH2 (Ac-VSNKYFSNICHW-NH2; not fully specified (bridges); printed as Ac-Val-Ser-Asn-Lys-Tyr-Phe-Ser-Asn-Ile-Cys-His-Trp-NH2; also: oxorhenium(V) N3S1 metal chelate (X-X-Cys)) [SEQ ID NO:11] | – | – | – | – | % Inhibition at 1 µM [1]: 0.0%
3 | Ac-Val-Ser-Asn-Lys-Tyr-Cys-Phe-Ser-Asn-Ile-His-Trp-NH2 (Ac-VSNKYCFSNIHW-NH2; not fully specified (bridges); printed as Ac-Val-Ser-Asn-Lys-Tyr-Cys-Phe-Ser-Asn-Ile-His-Trp-NH2; also: oxorhenium(V) N3S1 metal chelate (X-X-Cys)) [SEQ ID NO:7] | – | – | – | – | % Inhibition at 1 µM [1]: 18.0%
4 | Ala-Tyr-Ile-Gln-Asn-Cys-Ala-Pro-Leu-Gly-NH2 (AYIQNCAPLG-NH2; not fully specified (bridges); printed as Ala-Tyr-Ile-Gln-Asn-Cys-Ala-Pro-Leu-Gly-NH2; also: oxorhenium(V) N3S1 metal chelate (X-X-Cys)) [SEQ ID NO:155] | 0 | – | – | – | activity at oxytocin receptor [3]: maximal activity
5 | Ala-Tyr-Ile-Gln-Cys-Asn-Ala-Pro-Leu-Gly-NH2 (AYIQCNAPLG-NH2; not fully specified (bridges); printed as Ala-Tyr-Ile-Gln-Cys-Asn-Ala-Pro-Leu-Gly-NH2; also: oxorhenium(V) N3S1 metal chelate (X-X-Cys)) [SEQ ID NO:156] | 0 | 18 | – | – | activity at oxytocin receptor [3]: active
6 | Ala-Tyr-Ile-Cys-Gln-Asn-Ala-Pro-Leu-Gly-NH2 (AYICQNAPLG-NH2; not fully specified (bridges); printed as Ala-Tyr-Ile-Cys-Gln-Asn-Ala-Pro-Leu-Gly-NH2; also: oxorhenium(V) N3S1 metal chelate (X-X-Cys)) [SEQ ID NO:157] | 0 | 0 | – | – | –
7 | Pmp-D-Trp-Cys-Ile-Thr-Dap-Ala-Pro-Orn-NH2 | – | – | 23 | 0 | –
8 | Caca-D-Trp-Ile-Thr-Dap-Ala-Cys-Pro-Orn-NH2 | – | – | 0 | 0 | –
9 | [Chg][dW]CIT[Dap]AP[Orn]-NH2 | – | – | 0 | 0 | –
10 | Ala-Tyr-Ile-Gln-Asn-Ala-Cys-Pro-Leu-Gly-NH2 (AYIQNACPLG-NH2; not fully specified (bridges); printed as Ala-Tyr-Ile-Gln-Asn-Ala-Cys-Pro-Leu-Gly-NH2; also: oxorhenium(V) N3S1 metal chelate (X-X-Cys)) [SEQ ID NO:153] | 0 | 2 | – | – | –
11 | Caca-D-Trp-Ile-Thr-Cys-Dap-Ala-Pro-Orn-NH2 | – | – | 0 | 0 | –
12 | Caca-D-Trp-Ile-Thr-Dap-Cys-Ala-Pro-Orn-NH2 | – | – | 22 | 9 | –
13 | Caca-D-Trp-Ile-Cys-Thr-Dap-Ala-Pro-Orn-NH2 | – | – | 52 | 0 | –
14 | Ala-Tyr-Ile-Gln-Asn-Ala-Ala-Leu-Cys-Gly-NH2 (AYIQNAALCG-NH2; not fully specified (bridges); printed as Ala-Tyr-Ile-Gln-Asn-Ala-Ala-Leu-Cys-Gly-NH2; also: oxorhenium(V) N3S1 metal chelate (X-X-Cys)) [SEQ ID NO:151] | 0 | 0 | – | – | –
15 | Caca-D-Trp-Ile-Thr-Dap-Ala-Ala-Cys-Orn-NH2 | – | – | 0 | 0 | –
16 | Ala-Tyr-Ile-Gln-Asn-Ala-Cys-Ala-Leu-Gly-NH2 (AYIQNACALG-NH2; not fully specified (bridges); printed as Ala-Tyr-Ile-Gln-Asn-Ala-Cys-Ala-Leu-Gly-NH2; also: oxorhenium(V) N3S1 metal chelate (X-X-Cys)) [SEQ ID NO:154] | 0 | 31 | – | – | activity at oxytocin receptor [3]: active
17 | [dChg][dW]CIT[Dap]AP[Orn]-NH2 | – | – | 8 | 0 | –
18 | Ala-Tyr-Ile-Gln-Asn-Ala-Ala-Leu-Gly-Cys-NH2 (AYIQNAALGC-NH2; not fully specified (bridges); printed as Ala-Tyr-Ile-Gln-Asn-Ala-Ala-Leu-Gly-Cys-NH2; also: oxorhenium(V) N3S1 metal chelate (X-X-Cys)) [SEQ ID NO:150] | 0 | 0 | – | – | –
19 | Ala-Tyr-Ile-Gln-Asn-Ala-Ala-Cys-Leu-Gly-NH2 (AYIQNAACLG-NH2; not fully specified (bridges); printed as Ala-Tyr-Ile-Gln-Asn-Ala-Ala-Cys-Leu-Gly-NH2; also: oxorhenium(V) N3S1 metal chelate (X-X-Cys)) [SEQ ID NO:152] | 1 | 0 | – | – | –
20 | Caca-D-Trp-Ile-Thr-Dap-Ala-Cys-Ala-Orn-NH2 | – | – | 0 | 0 | –
21 | Ala-Tyr-Ile-Gln-Asn-Ala-Pro-Leu-Gly-Cys-NH2 (AYIQNAPLGC-NH2; not fully specified (bridges); printed as Ala-Tyr-Ile-Gln-Asn-Ala-Pro-Leu-Gly-Cys-NH2; also: oxorhenium(V) N3S1 metal chelate (X-X-Cys)) [SEQ ID NO:149] | 0 | 6 | – | – | –
22 | Caca-D-Trp-Ile-Thr-Dap-Ala-Ala-Orn-Cys-NH2 | – | – | 23 | 0 | –
23 | Ala-Tyr-Cys-Ile-Gln-Asn-Ala-Pro-Leu-Gly-NH2 (AYCIQNAPLG-NH2; not fully specified (bridges); printed as Ala-Tyr-Cys-Ile-Gln-Asn-Ala-Pro-Leu-Gly-NH2; also: oxorhenium(V) N3S1 metal chelate (X-X-Cys)) [SEQ ID NO:158] | 1 | 6 | – | – | –
